The target of experiment [1] is sNAp of A/Vietnam/1203/2004 (VN04, H5N1) NA (Influenza A virus A/Vietnam/1203/2004 …, UniProt Q6DPL2, stabilised). Nature of the experiment: ELISA. As to conditions: both partners purified.
In experiment [2] the target is T1, N1-CA09-sNAp, stabilized neuraminidase protein of A/California/04/2009 (H1N1) (Influenza A virus A/California/04/2009 …, stabilised).
T1 chain: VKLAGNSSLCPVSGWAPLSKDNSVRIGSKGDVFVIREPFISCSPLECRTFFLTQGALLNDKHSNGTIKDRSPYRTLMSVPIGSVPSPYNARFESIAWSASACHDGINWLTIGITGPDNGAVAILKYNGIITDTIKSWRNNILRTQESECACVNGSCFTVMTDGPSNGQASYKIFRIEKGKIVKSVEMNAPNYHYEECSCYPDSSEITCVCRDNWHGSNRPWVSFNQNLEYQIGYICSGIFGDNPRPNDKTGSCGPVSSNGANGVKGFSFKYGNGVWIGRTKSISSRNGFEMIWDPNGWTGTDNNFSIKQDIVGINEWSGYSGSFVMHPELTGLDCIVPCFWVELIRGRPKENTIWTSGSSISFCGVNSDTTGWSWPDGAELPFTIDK
The experiment in a line: cryo-EM structure. As to conditions: both partners purified.

The term stoichiometry N denotes the number of molecules, sites or subunits per partner or assembly.

B1: NCS.1.1 mAb (IgG) (antibody, V domains shown)
VH: QVQLQESGPRLVKPSETLSLTCSVSGESISSGGYYWTWIRQHPGKGLEWIGNIFDTGSTDYSPSLKTRLTISIDTSKNQFYLRLNSATAADTAVYYCARVGFSLETDRPYYLGLDVWGQGTTVTVSS
VL: DIVMTQSPLSLPVTPGEPASISCRSSQSLLHSNGYTYLDWYLQKPGQSPQLLISFTSNRASGVPDRFSGSGSGTYFTLKISRVEAEDVGVYYCMQAVQTPWTFGQGTKVEIK
notes: copies: 2 + 2
B1: in experiment [1], the binding result is “binds”.

B2: NCS.1.1 Fab (Fab, V domains shown)
VH: QVQLQESGPRLVKPSETLSLTCSVSGESISSGGYYWTWIRQHPGKGLEWIGNIFDTGSTDYSPSLKTRLTISIDTSKNQFYLRLNSATAADTAVYYCARVGFSLETDRPYYLGLDVWGQGTTVTVSS
VL: DIVMTQSPLSLPVTPGEPASISCRSSQSLLHSNGYTYLDWYLQKPGQSPQLLISFTSNRASGVPDRFSGSGSGTYFTLKISRVEAEDVGVYYCMQAVQTPWTFGQGTKVEIK
As for B2, the “stoichiometry N” value in experiment [2] came to 4 Fabs per NA tetramer.

B3: NCS.1.3 mAb (IgG) (antibody, V domains shown)
VH: QVQLQESGPRLVKPSETLSLTCSVSGESISSGGYYWTWIRQHPGKGLEWIGNIFDTGSTDYSPSLKTRLTISIDTSKNQFYLRLTSATAADTAVYYCARVGFSLETDRPYYLGLDVWGQGTTVTVSS
VL: DIVMTQSPLTLPVTPGEPASISCRSSQSLLHSNGYTYLDWYLQKPGQSPQLLIYFASNRASGVPDRFSGSGSGTYFTLKISRVEAEDVGVYYCMQAVQSPWTFGQGTKVEIK
notes: copies: 2 + 2
Consider B3, for which, in experiment [1], the binding result is on record as “binds”.

The record behind these values is paper doi:10.1101/2024.11.27.625426 (bioRxiv, 2024).
